Assay results reported in paper PMC10719177.

Assays:
[1] = confocal colocalisation with LAMP-1/CD63 (Pearson), cell lines; settings: control: untreated cells
[2] = western blot of cell media; settings: glycan lost; control: untreated cells
[3] = confocal colocalisation (Pearson), primary and super-charged NK cells; settings: glycan changed form; control: untreated cells

B1: cystatin F: kifunensine (10 µM, 6 h); U-937, TALL-104, NK-92 (protein)
parent chain: MRAAGTLLAFCCLVLSTTGGPSPDTCSQDLNSRVKPGFPKTIKTNDPGVLQAARYSVEKFNNCTNDMFLFKESRITRALVQIVKGLKYMLEVEIGRTTCKKNQHLRLDDCDFQTNHTLKQTLSCYSEVWVVPWLQHFEVPVLRCH
- localisation_or_trafficking ([1]; glycan changed form): increases

B2: cystatin F: tunicamycin (protein)
parent chain: MRAAGTLLAFCCLVLSTTGGPSPDTCSQDLNSRVKPGFPKTIKTNDPGVLQAARYSVEKFNNCTNDMFLFKESRITRALVQIVKGLKYMLEVEIGRTTCKKNQHLRLDDCDFQTNHTLKQTLSCYSEVWVVPWLQHFEVPVLRCH
- expression_or_secretion [2]: changes

B3: cystatin F: kifunensine (10 µM, 6 h); pNK, sNK (protein)
parent chain: MRAAGTLLAFCCLVLSTTGGPSPDTCSQDLNSRVKPGFPKTIKTNDPGVLQAARYSVEKFNNCTNDMFLFKESRITRALVQIVKGLKYMLEVEIGRTTCKKNQHLRLDDCDFQTNHTLKQTLSCYSEVWVVPWLQHFEVPVLRCH
- localisation_or_trafficking [3]: increases

B4: cystatin F: tunicamycin (1 µg/mL); U-937, NK-92 (protein)
parent chain: MRAAGTLLAFCCLVLSTTGGPSPDTCSQDLNSRVKPGFPKTIKTNDPGVLQAARYSVEKFNNCTNDMFLFKESRITRALVQIVKGLKYMLEVEIGRTTCKKNQHLRLDDCDFQTNHTLKQTLSCYSEVWVVPWLQHFEVPVLRCH
- localisation_or_trafficking ([1]; glycan lost): decreases
